Measurements: paper PMC4186968, “Molecular Basis for Coordinating Transcription Termination with Noncoding RNA Degradation” (Molecular Cell, 2014)
Changes are numbered by the printed parent chain. Names may count otherwise. Where a SMILES comes first, the peptide text is derived from it. Where no end group is shown, it is not given here.

B1: Nrd1p CID (residues 1-153), P53617 K21D (peptide)
chain: DDDEDGYNPYTL
B2: Nrd1p CID (residues 1-153), P53617 L20D (protein)
chain: MQQDDDFQNFVATLESFKDDKSGISGSRIKKLTTYALDHIDIESKIISLIIDYSRLCPDSHKLGSLYIIDSIGRAYLDETRSNSNSSSNKPGTCAHAINTLGEVIQELLSDAIAKSNQDHKEKIRMLLDIWDRSGLFQKSYLNAIRSKCFAMD
B3: Nrd1p CID (residues 1-153) (domain or fragment)
chain: B2 chain with D20L
B4: Nrd1p CID (residues 1-153), P53617 I130K (protein)
chain: B2 chain with D20L, I130K
B5: Nrd1p CID (residues 1-153), P53617 R28D (protein)
chain: B2 chain with D20L, R28D
B6: Nrd1p CID Ile130Lys (domain or fragment)
chain: B2 chain with D20L, I130K
B7: Nrd1p CID (residues 1-153), P53617 D70A (protein)
chain: B2 chain with D20L, D70A
B8: Trf4p NIM peptide with alanine at Tyr579 (peptide)
chain: DDDEDGANPYTL
modifications: not fully specified (N-terminus); also: FAM label (position not given here)
B9: 12 aa NIM peptide of Trf4p (peptide)
peptide: DDDEDGYNPYTL
notes: printed in three-letter code; also called Trf4p NIM; unlabeled NIM
B10: FAM-labeled Trf4p NIM peptide E576A (peptide)
chain: DDDADGYNPYTL
B11: FAM-labeled Trf4p NIM peptide E576R (peptide)
chain: DDDRDGYNPYTL
B12: Trf4p NIM peptide with Glu576 changed to arginine (peptide)
chain: DDDRDGYNPYTL
B13: Nrd1p CID (residues 1-153), P53617 S25R (peptide)
chain: DDDEDGYNPYTL

Tests used:
Nrd1p CID = molecular target: T1, Nrd1p CID (Saccharomyces cerevisiae, UniProt P53617); assay: Equilibrium binding of FAM-labelled peptides to Nrd1p CID by fluorescence anisotropy (FA); design: species or system S. cerevisiae
T1 construct: the CID (residues 1–153) of Nrd1p; His6 (C); made in house
T1 sequence (P53617 1-153): B2 chain with D20L

[1] = molecular target: Nrd1p CID (residues 1-153) (UniProt P53617); assay: fluorescence anisotropy (FA) equilibrium binding
[2] = molecular target: T2, FAM-labeled Trf4p NIM peptide; assay: fluorescence anisotropy (FA) equilibrium binding; details: chain shown with the change
T2 chain: B2 chain with D20L, K21D

[3] = molecular target: T3, FAM-labeled Trf4p NIM peptide; assay: fluorescence anisotropy (FA) equilibrium binding; details: chain shown with the change
T3 chain: DDDEDGYNPYTL

NIM N580A = molecular target: T4, NIM N580A (Saccharomyces cerevisiae, not fully specified (N-terminus); also: FAM label (position not given here)); assay: FP
T4 chain: DDDEDGYAPYTL

NIM D577R = molecular target: T5, NIM D577R (Saccharomyces cerevisiae, not fully specified (N-terminus); also: FAM label (position not given here)); assay: FP
T5 chain: DDDERGYNPYTL

[4] = molecular target: FAM-labeled Ser5P CTD peptide (S. cerevisiae); assay: fluorescence polarisation; fluorescence anisotropy; fluorescently labeled peptide titrated with Nrd1p CID; equilibrium binding in solution
[5] = molecular target: FAM-labeled Trf4p NIM peptide (S. cerevisiae); assay: as above
[6] = molecular target: FAM-labeled Ser5P CTD peptide (S. cerevisiae); assay: fluorescence polarisation; fluorescence anisotropy competition; preformed complex of 10 nM FAM-labeled Ser5P CTD and Nrd1p CID (120 μM) titrated with unlabeled Trf4p NIM peptide; KD calculated using 1.08 μM for CID-NIM
[7] = molecular target: B3; assay: FP
[8] = molecular target: T6, Nrd1p CID (residues 1-153) (S. cerevisiae, UniProt P53617 1-153); assay: NMR solution structure; reconstituted complex of 15N,13C-labeled Nrd1p CID and unlabeled NIM peptide; 50 mM sodium phosphate pH 8.0, 100 mM NaCl, 20°C; details: both partners purified
T6 construct: also called Nrd1 CID
T6 sequence (looked up): B2 chain with D20L

[9] = molecular target: T7, Nrd1p CID (residues 1-153), P53617; assay: fluorescence anisotropy (FA) equilibrium binding; details: chain shown with the change
T7 chain: B2 chain with D20L

[10] = molecular target: T8, FAM-labeled Trf4p NIM peptide; assay: fluorescence anisotropy (FA) equilibrium binding; details: chain shown with the change
T8 chain: B2 chain with D20L, S25R

Work on `CC(C)C[C@H](NC(=O)[C@@H](NC(=O)[C@H](Cc1ccc(O)cc1)NC(=O)[C@@H]1CCCN1C(=O)[C@H](C)NC(=O)[C@H](Cc1ccc(O)cc1)NC(=O)CNC(=O)[C@H](CC(=O)O)NC(=O)[C@H](CCC(=O)O)NC(=O)[C@H](CC(=O)O)NC(=O)[C@H](CC(=O)O)NC(=O)[C@H](CC(=O)O)NC(=O)c1ccc2c(c1)C(=O)OC21c2ccc(O)cc2Oc2cc(O)ccc21)[C@@H](C)O)C(=O)O` [N580A] (HELM PEPTIDE1{[O=C1OC2(c3ccc(O)cc3Oc3cc(O)ccc32)c2ccc(C(=O)[*:2])cc21].D.D.D.E.D.G.Y.A.P.Y.T.L}$$$$V2.0) yielded a Kd (Nrd1p CID) of 4.3 ± 0.1 µM.

`CC(C)C[C@H](NC(=O)[C@@H](NC(=O)[C@H](Cc1ccc(O)cc1)NC(=O)[C@@H]1CCCN1C(=O)[C@H](CC(N)=O)NC(=O)[C@H](Cc1ccc(O)cc1)NC(=O)CNC(=O)[C@H](CC(=O)O)NC(=O)[C@H](CCC(=O)O)NC(=O)[C@H](CC(=O)O)NC(=O)[C@H](CC(=O)O)NC(=O)[C@H](CC(=O)O)NC(=O)c1ccc2c(c1)C(=O)OC21c2ccc(O)cc2Oc2cc(O)ccc21)[C@@H](C)O)C(=O)O` [Trf4p NIM] (HELM PEPTIDE1{[O=C1OC2(c3ccc(O)cc3Oc3cc(O)ccc32)c2ccc(C(=O)[*:2])cc21].D.D.D.E.D.G.Y.N.P.Y.T.L}$$$$V2.0; C-terminus assumed) showed a Kd (Nrd1p CID) of 1.09 ± 0.01 µM.

`CC(C)C[C@H](NC(=O)[C@@H](NC(=O)[C@H](Cc1ccc(O)cc1)NC(=O)[C@@H]1CCCN1C(=O)[C@H](CC(N)=O)NC(=O)[C@H](Cc1ccc(O)cc1)NC(=O)CNC(=O)[C@H](CCCNC(=N)N)NC(=O)[C@H](CCC(=O)O)NC(=O)[C@H](CC(=O)O)NC(=O)[C@H](CC(=O)O)NC(=O)[C@H](CC(=O)O)NC(=O)c1ccc2c(c1)C(=O)OC21c2ccc(O)cc2Oc2cc(O)ccc21)[C@@H](C)O)C(=O)O` [D577R] (HELM PEPTIDE1{[O=C1OC2(c3ccc(O)cc3Oc3cc(O)ccc32)c2ccc(C(=O)[*:2])cc21].D.D.D.E.R.G.Y.N.P.Y.T.L}$$$$V2.0) showed a Kd (Nrd1p CID) of 24.2 ± 0.6 µM.

Molecule `CC(C)C[C@H](NC(=O)[C@@H](NC(=O)[C@H](Cc1ccc(O)cc1)NC(=O)[C@@H]1CCCN1C(=O)[C@H](CC(N)=O)NC(=O)[C@H](Cc1ccc(O)cc1)NC(=O)CNC(=O)[C@H](CC(=O)O)NC(=O)[C@H](CCC(=O)O)NC(=O)[C@H](CCCNC(=N)N)NC(=O)[C@H](CC(=O)O)NC(=O)[C@H](CC(=O)O)NC(=O)c1ccc2c(c1)C(=O)OC21c2ccc(O)cc2Oc2cc(O)ccc21)[C@@H](C)O)C(=O)O` [D575R] (HELM PEPTIDE1{[O=C1OC2(c3ccc(O)cc3Oc3cc(O)ccc32)c2ccc(C(=O)[*:2])cc21].D.D.R.E.D.G.Y.N.P.Y.T.L}$$$$V2.0) has a Kd (Nrd1p CID) of 7.7 ± 0.2 µM.

FAM-labeled Trf4p NIM peptide Y579A was tested, and the Kd [1] was 283 µM.

B1 gave a Kd [2] of 35.4 µM.

Work on B2 yielded a Kd [3] of 44.9 µM.

In the case of B3, the Kd (NIM N580A) is reported as 4.3 µM, the Kd (NIM D577R) is reported as 24.2 µM and the Kd [4] is reported as 130 µM. For the same molecule, the Kd [5] was 1.08 µM and the Kd [6] was 120 µM.

For B4, the Kd [3] was 20.7 µM.

In the case of B5, the Kd [3] is reported as 96.9 µM.

Work on B6 yielded a fold decrease in binding affinity against wild-type Nrd1p CID [5] of 20 fold.

Work on B7 yielded a Kd [3] of 39.8 µM.

B8 gave a Kd [7] of 263 µM.

B9: binds [8].

B10 showed a Kd [9] of 3.2 µM.

B11 was tested, and the Kd [9] was 4.8 µM.

For B12, the Kd [7] was 4.6 µM.

With B13 the Kd [10] was 146 µM.
